The results in this text go back to patent US20240270866A1 (Alector, published 2024).

In test [1] the target is T1, human SIRPA Fc fusion antigen (human, UniProt P78324 31-373).
T1 construct: heterologous signal peptide; not shown: human IgG1 Fc
Kind of test: ForteBio IgG avid.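 Further: ForteBio sensor-based avid binding of anti-SIRPA antibodies in IgG format, with the binding partner in solution at 100 nM.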 A general note: In BLI a coated tip is dipped into the sample, and binding shifts an interference pattern.

In test [2] the target is T2, human SIRPβ1 Fc fusion antigen (human, UniProt O00241 30-371).
T2 construct: not shown: human IgG1 Fc
T2 sequence (O00241 30-371 limits assumed): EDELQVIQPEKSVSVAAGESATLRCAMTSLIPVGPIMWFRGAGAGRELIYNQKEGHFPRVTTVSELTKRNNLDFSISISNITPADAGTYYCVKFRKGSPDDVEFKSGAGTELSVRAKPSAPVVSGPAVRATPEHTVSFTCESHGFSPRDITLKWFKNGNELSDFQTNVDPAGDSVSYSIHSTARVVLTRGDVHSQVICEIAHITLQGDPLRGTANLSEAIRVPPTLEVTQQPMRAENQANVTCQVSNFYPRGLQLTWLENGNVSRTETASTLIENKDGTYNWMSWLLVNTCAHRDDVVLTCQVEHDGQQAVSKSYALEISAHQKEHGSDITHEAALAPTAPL
Put plainly: ForteBio IgG avid.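 Further: ForteBio sensor-based avid binding of anti-SIRPA antibodies in IgG format, with the binding partner in solution at 100 nM.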

The term Kd denotes the equilibrium constant for the complex coming apart. A low value points to tighter binding.

B1: SA-56-90 (antibody, V domains shown)
VH: QVQLVESGGGVVQPGRSLRLSCAASGSTFSHYGMSWVRQAPGKGLEWVASIWVDGSNKYYADSVKGRFTISRDNSKNTLYLQMDSLRAEDTAVYYCARGVETYSGPNWFDPWGQGTLVTVSS
VL: DIQMTQSPSSVSASVGDRVTITCRASQGISSWLAWYQQKPGKAPKLLIYAASSLQSGVPSRFSGSGSGTDFTLTISSLQPEDFATYYCQQAIYFPITFGGGTKVEIK
notes: IgG; also called SA-90
The molecule B1 had a Kd in test [1] of 0.378 nM. Further, the binding result in test [2] is reported as “no binding (tested: 100 nM)”.

B2: SA-56-94 (antibody, V domains shown)
VH: EVQLVESGGGVVQPGRSLRLSCAASGFTFSYYGMSWVRQAPGKGLEWVASIWVDGSNKYYADSVKGRFTISRDNSKNTLYLQMNSLRAEDTAVYYCAVGTETYSGPNWFDPWGQGTLVTVSS
VL: DIQMTQSPSSVSASVGDRVTITCRASQGISSWLAWYQQKPGKAPKLLIYAASSLQSGVPSRFSGSGSGTDFTLTISSLQPEDFATYYCQQAIYFPITFGGGTKVEIK
notes: IgG; also called SA-94
The molecule B2 came in with a Kd in test [1] of 0.566 nM. Besides, the binding result in test [2] is reported as “no binding (tested: 100 nM)”.

B3: SA-56-92 (antibody, V domains shown)
VH: EVQLVESGGGVVQPGRSLRLSCAASGFTFSYYGMSWVRQAPGKGLEWVASIWVDGSNKYYADSVKGRFTISRDNSKNTLYLQMDSLRAEDTAVYYCATGVETYSGPNWFDPWGQGTLVTVSS
VL: DIQMTQSPSSVSASVGDRVTITCRASQGISSWLAWYQQKPGKAPKLLIYAASSLQSGVPSRFSGSGSGTDFTLTISSLQPEDFATYYCQQAIYFPITFGGGTKVEIK
notes: IgG
Take B3: the Kd in test [1] came to 0.365 nM. Besides, the binding result in test [2] was “no binding (tested: 100 nM)”.

B4: SA-56-93 (antibody, V domains shown)
VH: EVQLLESGGGVVQPGRSLRLSCAASGFTFSYYGMSWVRQAPGKGLEWVASIWVDGSNKYYADSVKGRFTISRDNSKNALYLQMNSLRAEDTAVYYCAVSRETYSGPNWFDPWGQGTLVTVSS
VL: DIQMTQSPSSVSASVGDRVTITCRASQGISSWLAWYQQKPGKAPKLLIYAASSLQSGVPSRFSGSGSGTDFTLTISSLQPEDFATYYCQQAIYFPITFGGGTKVEIK
notes: IgG
On to B4, for which, in test [1], the Kd worked out at 0.862 nM. In addition, in test [2], the binding result was “no binding (tested: 100 nM)”.

B5: SA-56-95 (antibody, V domains shown)
VH: EVQLLESGGGVVQPGRSLRLSCAASGFTFAHYGMAWVRQAPGKGLEWVAVIWVDGSPKYYADSVKGRFTISRDNSKNTLYLQMNSLRAEDTAVYYCAVARETYSGPNWFDPWGQGTLVTVSS
VL: DIQMTQSPSSVSASVGDRVTITCRASQGISSWLAWYQQKPGKAPKLLIYAASSLQSGVPSRFSGSGSGTDFTLTISSLQPEDFATYYCQQAIYFPITFGGGTKVEIK
notes: IgG
In test [1], B5 had a Kd of 1.06 nM. In test [2], the binding result is “no binding (tested: 100 nM)”.

B6: SA-56-91 (antibody, V domains shown)
VH: EVQLVESGGGVVQPGRSLRLSCAASGFTFAHYGMAWVRQAPGKGLEWVASIWVDGSNKYYADSVKGRFTISRDNSKNTLYLQMNSLRAEDTAVYYCATAVETYSGPNWFDPWGQGTLVTVSS
VL: DIQMTQSPSSVSASVGDRVTITCRASQGISSWLAWYQQKPGKAPKLLIYAASSLQSGVPSRFSGSGSGTDFTLTISSLQPEDFATYYCQQAIYFPITFGGGTKVEIK
notes: IgG
B6 returned a Kd in test [1] of 0.412 nM. Also, the binding result in test [2] is “no binding (tested: 100 nM)”.

B7: SA-56-96 (antibody, V domains shown)
VH: EVQLLESGGGVVQPGRSLRLSCAASGFTFSSYAMGWVRQAPGKGLEWVAVIWVDGSLKYYADSVKGRFTISRDNSKNTLYLQMNSLRAEDTAVYYCATGRETYSGPNWFDPWGQGTLVTVSS
VL: DIQMTQSPSSVSASVGDRVTITCRASQGISSWLAWYQQKPGKAPKLLIYAASSLQSGVPSRFSGSGSGTDFTLTISSLQPEDFATYYCQQAIYFPITFGGGTKVEIK
notes: IgG
B7 displayed a Kd in test [1] of 1.04 nM. In addition, the binding result in test [2] is “no binding (tested: 100 nM)”.
